Source: the supplement of paper PMC10724198
± gives the standard deviation of the averaged measurements.

Tested on: Saccharomyces cerevisiae
Assay: protein stability index of tFT-peptide fusion (C-terminal peptide) (PSI (0-1 scale)); higher = more stable (slower turnover)
Conditions: temperature: 30 C
Method: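 MPS profiling in S. cerevisiae of the yeast C-terminome library: the last 12 aa of each annotated ORF are fused to the C-terminus of a sfGFP-mCherry timer, after a GGGS linker. Cells are FACS-sorted into 8 mCherry/sfGFP bins and deep-sequenced. PSI runs from 0 (unstable) to 1 (stable); wild type and das1Δ backgrounds, two technical replicates each.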

[1] = genetic background: das1 deletion

Row | Sequence | protein stability index [1] | protein stability index (genetic background: wild type)
1 | HQKARSSYCCIQ [XDJ1 C-terminal 12 aa] | 0.759 ± 0.02 | 0.706 ± 0.0085
2 | HNILDRCLKRLS [RKM3 C-terminal 12 aa] | 0.699 ± 0.03 | 0.716 ± 0.013
3 | TFCVYENLKHRL [FLX1 C-terminal 12 aa] | 0.741 ± 0.019 | 0.726 ± 0.017
4 | NFWNTGSAIFMQ [YHR069C-A C-terminal 12 aa] | 0.7347 ± 0.0017 | 0.719 ± 0.029
5 | HEKRTEEVARYA [YGR026W C-terminal 12 aa] | 0.7173 ± 0.0035 | 0.6604 ± 0.0066
6 | ECPGGCPGVAFI [RTC1 C-terminal 12 aa] | 0.7077 ± 0.0053 | 0.685 ± 0.024
7 | YQVSIAKVPRLT [BUD5 C-terminal 12 aa] | 0.711 ± 0.0095 | 0.4878 ± 0.0037
8 | QPSSASCLFILI [AHT1 C-terminal 12 aa] | 0.716 ± 0.023 | 0.696 ± 0.055
9 | PGPISFLPVIPI [YLR402W C-terminal 12 aa] | 0.7092 ± 0.0061 | 0.744 ± 0.12
10 | LITMIRFVNSQK [DCG1 C-terminal 12 aa] | 0.677 ± 0.044 | 0.673 ± 0.034
11 | ELKAHNINVVDK [PNC1 C-terminal 12 aa] | 0.662 ± 0.037 | 0.675 ± 0.044
12 | PINDRKYPNQCH [SPR1 C-terminal 12 aa] | 0.715 ± 0.028 | 0.6948 ± 0.0011
13 | EKLQLWHSMSND [YOR008C-A C-terminal 12 aa] | 0.698 ± 0.0035 | 0.72 ± 0.033
14 | DYSFVNTFRDYE [HAL9 C-terminal 12 aa] | 0.697 ± 0.022 | 0.736 ± 0.053
15 | SYFNTIMHNCKP [SET4 C-terminal 12 aa] | 0.72482 ± 0.00043 | 0.715 ± 0.0071
16 | IRLDGENNSCSC [YPT7 C-terminal 12 aa] | 0.692 ± 0.017 | 0.697 ± 0.012
17 | IYSVIQCLFLHS [YMR141W-A C-terminal 12 aa] | 0.64018 ± 0.00059 | 0.607 ± 0.018
18 | GEGESIDDKLTD [STB1 C-terminal 12 aa] | 0.6976 ± 0.00096 | 0.733 ± 0.054
19 | CVNSASLNLKKD [MXR2 C-terminal 12 aa] | 0.695 ± 0.023 | 0.682 ± 0.035
20 | HGNDFLQHVNRK [RSM22 C-terminal 12 aa] | 0.716 ± 0.03 | 0.7065 ± 0.0016
21 | RSIRWFREAGGK [SKI8 C-terminal 12 aa] | 0.695 ± 0.018 | 0.7202 ± 0.0028

Row | Sequence | protein stability index [1] | protein stability index (genetic background: wild type)
22 | KENLANNEILDN [YKL063C C-terminal 12 aa] | 0.683 ± 0.018 | 0.67 ± 0.026
23 | QEPVIDPGTVVV [MRPL3 C-terminal 12 aa] | 0.6775 ± 0.0024 | 0.676 ± 0.011
24 | KFAKANIGYVMG [RPN4 C-terminal 12 aa] | 0.4528 ± 0.0025 | 0.495 ± 0.011
25 | LVAEATKKKRHT [DJP1 C-terminal 12 aa] | 0.7115 ± 0.0067 | 0.6936 ± 0.0052
26 | NLEATNNKKPPL [DAD4 C-terminal 12 aa] | 0.6963 ± 0.0043 | 0.6968 ± 0.00081
27 | EYEYEDDGLFER [GCD1 C-terminal 12 aa] | 0.695 ± 0.017 | 0.692 ± 0.029
28 | NIREARYEQQLK [CTF4 C-terminal 12 aa] | 0.733 ± 0.035 | 0.689 ± 0.03
29 | NDDNFDDAQEQQ [SEC2 C-terminal 12 aa] | 0.6977 ± 0.0015 | 0.7002 ± 0.0057
30 | GLQKKNIKIHGF [SUI1 C-terminal 12 aa] | 0.699 ± 0.024 | 0.684 ± 0.074
31 | ELNEEKRRSALP [SAK1 C-terminal 12 aa] | 0.687 ± 0.023 | 0.686 ± 0.016
32 | FLFHCVHLLLSG [YDR535C C-terminal 12 aa] | 0.511 ± 0.011 | 0.4909 ± 0.003
33 | EIDGQFCIFQVV [YJL107C C-terminal 12 aa] | 0.711 ± 0.013 | 0.647 ± 0.031
34 | FSRASCITVWLV [YPR160C-A C-terminal 12 aa] | 0.6275 ± 0.0035 | 0.228 ± 0.027
35 | TGGCSSSKFSLS [SKN1 C-terminal 12 aa] | 0.692 ± 0.021 | 0.68965 ± 0.00013
36 | WSNNDDMEQNPW [YPR089W C-terminal 12 aa] | 0.7236 ± 0.0055 | 0.713 ± 0.029
37 | NMRFFYRLYVKN [BMT6 C-terminal 12 aa] | 0.489 ± 0.015 | 0.45 ± 0.0084
38 | LPGINSIFKNIF [TOD6 C-terminal 12 aa] | 0.774 ± 0.016 | 0.722 ± 0.063
39 | CSLINSCAFFCL [YDR413C C-terminal 12 aa] | 0.704 ± 0.012 | 0.647 ± 0.013
40 | VVYYQMRCKKMT [BUD26 C-terminal 12 aa] | 0.678 ± 0.032 | 0.4177 ± 0.0039
41 | DATRREVMTERK [LSM2 C-terminal 12 aa] | 0.672 ± 0.014 | 0.688 ± 0.059
42 | DILKILSSSFHN [SPC29 C-terminal 12 aa] | 0.7095 ± 0.0039 | 0.709 ± 0.014

Row | Sequence | protein stability index [1] | protein stability index (genetic background: wild type)
43 | YLRFKENPEEKW [AIM29 C-terminal 12 aa] | 0.711 ± 0.011 | 0.753 ± 0.086
44 | LSGAPQVTKKQN [POM33 C-terminal 12 aa] | 0.691 ± 0.013 | 0.674 ± 0.016
45 | VQQMVEMQGKMR [SGM1 C-terminal 12 aa] | 0.71134 ± 0.00034 | 0.68508 ± 0.00063
46 | LPLKLTRKVHDR [RIF2 C-terminal 12 aa] | 0.705 ± 0.05 | 0.713 ± 0.012
47 | SNPSSHIKKKGL [RRT6 C-terminal 12 aa] | 0.682 ± 0.014 | 0.6362 ± 0.0061
48 | CLSGGLLRKIPK [TMH18 C-terminal 12 aa] | 0.722 ± 0.087 | 0.6861 ± 0.006
49 | WEVVTGIRKLLI [PEX12 C-terminal 12 aa] | 0.68 ± 0.008 | 0.401 ± 0.014
50 | AGATTSRFIPLK [RPS15 C-terminal 12 aa] | 0.685 ± 0.023 | 0.652 ± 0.01
51 | FYIDKFQVREVK [SUC2 C-terminal 12 aa] | 0.7059 ± 0.0061 | 0.683 ± 0.038
52 | IHTPTIPKRSLT [MCX1 C-terminal 12 aa] | 0.7149 ± 0.0019 | 0.767 ± 0.052
53 | DSEEKKSKKSKK [CBF5 C-terminal 12 aa] | 0.669 ± 0.056 | 0.6785 ± 0.0045
54 | KESIQQQEDDLL [SEC17 C-terminal 12 aa] | 0.6974 ± 0.0026 | 0.692 ± 0.014
55 | QESTLETTQKED [AFI1 C-terminal 12 aa] | 0.703 ± 0.032 | 0.666 ± 0.018
56 | AADRDNKKDEST [XRN1 C-terminal 12 aa] | 0.6981 ± 0.0034 | 0.668 ± 0.057
57 | KLKRTITLPQLD [CIK1 C-terminal 12 aa] | 0.691 ± 0.022 | 0.761 ± 0.074
58 | NIYNPMDEEENQ [TFB5 C-terminal 12 aa] | 0.718 ± 0.025 | 0.683 ± 0.032
59 | SDVISEESYNEA [SVF1 C-terminal 12 aa] | 0.7069 ± 0.0026 | 0.694 ± 0.0074
60 | SLGSVFTILTDS [YGR228W C-terminal 12 aa] | 0.72 ± 0.0074 | 0.7206 ± 0.0043
61 | HEVDTEKINIFQ [YML003W C-terminal 12 aa] | 0.729 ± 0.018 | 0.697 ± 0.026
